Drawing on US5871948A, this text covers Km for 1 protein.

The term Km denotes the substrate concentration at which the rate is half of its maximum.

Substrate in this data set: NC(=O)c1ccc[n+]([C@@H]2O[C@H](COP(=O)(O)OP(=O)(O)OC[C@H]3O[C@@H](n4cnc5c(N)ncnc54)[C@H](OP(=O)(O)O)[C@@H]3O)[C@@H](O)[C@H]2O)c1
Briefly: purified protein, by the assay type.

B1: thermostable isocitrate dehydrogenase (iCDH) purified from Sulfolobus acidocaldarius DSM 639, FERM BP-5567 (Sulfolobus acidocaldarius DSM 639) (protein)
chain: MVMLYKEPQDGEPIKFEKGKWVVPNKPIILYIEGDGIGPEITNSAIRVVNKAVEKAYKSSREIKWLEVYAGEKANKITGDRFPKETQDMLLKYRVVLKGPLETPIGKGWKSINVAIRLMLDLYANIRPVKYIEGLESPLKHPEKVDMIIFRENTDDLYRGIEFPYDSEEAKKIRKFLREELKVDIEDDTGIGLKVMSKFKTQRITRLALNYALQNSRKKVTVMHKGNVMKYTEGSFREWAYEVALNEYRDKIVTEEEINRGVNSEGKVILNDRIADNMLQQIIIRPDEYDIILAPNVNGDYISDAAGALIGNIGMLGGANIGDTGGMFEAIHGTAPKYAGKNVANPTGIIKSCELMLYFMGWSEAARLIEKAINESIKQKKVTQDIARYLGITPLGTKEYTDTLVQIMDSF
For B1, the Km by setting is: (other: pH 8.6, 37° C., pH 8.6) 66 µM; (other: pH 9.5, 37° C., pH 9.5) 42 µM; (other: pH 10.0, 37° C., pH 10.0) 48 µM.
